Reference: US20120316113A1, “FGF BASED FIBRIN BINDING PEPTIDES” (Baxter Healthcare S.A., priority 2011, published 2012)

Assays:
[1] = target: T1, fibrin (Homo sapiens, UniProt P02671+P02675+P02679); assay: Fibrin binding assay by ELISA; details: fibrinogen-coated plate incubated with 10 I.U./ml thrombin, various concentrations
T1 construct: an activity for processing fibrinogen to fibrin, preferably a thrombin preparation; purchased Baxter AG, Vienna (Tisseel fibrinogen and Tisseel thrombin)
T1 sequence (P02671 36-866 limits assumed): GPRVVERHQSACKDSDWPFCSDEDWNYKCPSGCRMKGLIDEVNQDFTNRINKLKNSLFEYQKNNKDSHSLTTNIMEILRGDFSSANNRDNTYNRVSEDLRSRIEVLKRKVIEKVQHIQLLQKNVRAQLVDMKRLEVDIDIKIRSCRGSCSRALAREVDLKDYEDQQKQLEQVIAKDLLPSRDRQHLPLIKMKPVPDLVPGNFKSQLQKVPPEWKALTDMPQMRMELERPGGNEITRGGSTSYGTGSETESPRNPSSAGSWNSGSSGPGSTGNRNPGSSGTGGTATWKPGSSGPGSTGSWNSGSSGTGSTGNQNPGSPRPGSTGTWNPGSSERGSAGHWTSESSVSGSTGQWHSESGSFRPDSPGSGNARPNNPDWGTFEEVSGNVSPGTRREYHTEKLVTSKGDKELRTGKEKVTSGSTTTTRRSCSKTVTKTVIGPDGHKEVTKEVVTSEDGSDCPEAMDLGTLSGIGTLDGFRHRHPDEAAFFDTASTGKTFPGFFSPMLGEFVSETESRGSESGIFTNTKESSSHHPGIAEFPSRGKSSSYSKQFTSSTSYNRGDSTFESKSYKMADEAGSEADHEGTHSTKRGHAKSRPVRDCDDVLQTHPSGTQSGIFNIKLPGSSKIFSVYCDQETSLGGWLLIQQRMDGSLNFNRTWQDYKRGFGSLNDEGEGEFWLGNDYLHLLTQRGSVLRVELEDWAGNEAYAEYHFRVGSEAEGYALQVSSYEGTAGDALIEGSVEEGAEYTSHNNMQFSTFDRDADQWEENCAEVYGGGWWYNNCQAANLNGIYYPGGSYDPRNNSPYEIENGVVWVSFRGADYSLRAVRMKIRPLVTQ
T1 sequence (P02675 45-491 limits assumed): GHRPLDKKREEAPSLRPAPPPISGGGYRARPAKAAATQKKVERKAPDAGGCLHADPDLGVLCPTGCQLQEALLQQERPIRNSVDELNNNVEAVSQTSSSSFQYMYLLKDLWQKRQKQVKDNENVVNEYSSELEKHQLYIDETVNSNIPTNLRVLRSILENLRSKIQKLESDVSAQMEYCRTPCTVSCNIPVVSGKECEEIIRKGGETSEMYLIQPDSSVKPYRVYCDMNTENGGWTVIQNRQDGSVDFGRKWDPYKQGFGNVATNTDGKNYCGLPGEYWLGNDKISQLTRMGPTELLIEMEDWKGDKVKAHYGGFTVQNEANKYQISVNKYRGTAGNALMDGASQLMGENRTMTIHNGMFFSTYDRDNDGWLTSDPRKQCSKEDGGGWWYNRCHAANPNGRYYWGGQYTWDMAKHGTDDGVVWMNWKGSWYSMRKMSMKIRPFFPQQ
T1 sequence (P02679 27-453): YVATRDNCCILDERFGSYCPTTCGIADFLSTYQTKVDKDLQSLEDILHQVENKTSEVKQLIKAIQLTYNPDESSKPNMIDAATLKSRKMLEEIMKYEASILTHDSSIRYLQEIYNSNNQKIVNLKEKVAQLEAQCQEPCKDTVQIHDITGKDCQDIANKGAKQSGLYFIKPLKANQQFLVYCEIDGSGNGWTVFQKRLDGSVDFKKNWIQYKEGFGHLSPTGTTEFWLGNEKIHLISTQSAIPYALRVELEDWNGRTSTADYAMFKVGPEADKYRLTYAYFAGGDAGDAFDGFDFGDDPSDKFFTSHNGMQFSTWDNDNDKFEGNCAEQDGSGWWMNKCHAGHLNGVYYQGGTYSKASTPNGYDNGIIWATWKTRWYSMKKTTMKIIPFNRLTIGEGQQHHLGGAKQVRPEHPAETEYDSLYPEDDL
Experimental: A polystyrene 96-well plate (Nunc® Maxisorp EUSA-plates) was coated with 1 mg/ml fibrinogen (Tisseel®, Baxter AG, Vienna) overnight at 4° C. and then blocked with blocking solution (PBS+1% BSA) for 2 hours at room temperature CRT). After washing three times with PBS, purified peptides were added in various dilutions to the plate and incubated for 1 hour at RT. After the three times washing with PBS, a monoclonal anti-His6-peroxidase antibody (Sigma-Aldrich, Vienna), diluted in PBS+0.1% Tween (Sigma-Aldrich, Vienna) was added and incubated for 1 hour at RT. Finally, the plate was washed three times with PBS again and wells were incubated with o-phenylenediaminehydrochlorid substrate. Absorbance was measured at 492 nm and 620 nm. For fibrin binding analysis, the plate was first coated with fibrinogen overnight at 4° C. and then incubated with 10 I.U./ml thrombin (Tisseel, Baxter AG, Vienna) for 30 minutes at 37° C. The following procedure was the same as described above. […] The signals were detected and recorded at the Reichert SR7000 Surface Plasmon Resonance Analytical Instrument (Reichert Analytical, NY, USA). […]

[2] = target: T2, fibrin clots (Homo sapiens, UniProt P02671+P02675+P02679); assay: Stability of fibrin clots with aprotinin covalently bound through FS-anchors; format: biochemical; details: aprotinin EDC-coupled to the FS-anchor, clots kept in PBS at 37° C., after 5 days; compared with His-FGF-2 and pep1 anchors
T2 sequence (P02671 36-866 limits assumed): T1 sequence (P02671 36-866 limits assumed)
T2 sequence (P02675 45-491 limits assumed): T1 sequence (P02675 45-491 limits assumed)
T2 sequence (P02679 27-453): T1 sequence (P02679 27-453)
From the text: Aprotinin was successfully covalently bound to one FS-anchor (His-FGF-2, pep1 (68 an), pep3 (37 aa) and pep4 (28 aa)) using a standard protocol for 1-ethyl-3-(3-dimethylaminopropyl)carbodiimide) (EDC) coupling (FIG. 8A). For a positive control recombinant human FGF-2 (ProSpec Tany, Israel) and for a negative control phosphate buffered saline (PBS) were used. Covalently linked to a FS-anchor and purified aprotinin was mixed with fibrinogen and finally with thrombin to form fibrin clots. These fibrin clots were kept in PBS at 37° C. to observe stability and degradation of fibrin.

Row | Sequence | binding affinity to fibrin [1] | stability of fibrin clots [2]
1 | FERLESNNYN TYRSRHHHHH (FERLESNNYNTYRSRHHHHH; synthetic peptide pep 5 (20 aa), peptide #5, pep5 with C-terminus 5x HIS-tag) | little binding affinity | –
2 | KCVTDECFFFERLESNNYNTYRSRHHHHH (KCVTDECFFFERLESNNYNTYRSRHHHHH; synthetic peptide pep 4 (29 aa), peptide #4, pep4 with C-terminus 5x HIS-tag) | – | higher stability
3 | EDGRLLASKCVTDECFFFERLESNNYNTYRSRHHHHH (EDGRLLASKCVTDECFFFERLESNNYNTYRSRHHHHH; synthetic peptide pep 3 (37 aa), peptide #3, pep3 with C-terminus 5x HIS-tag) [also expressed recombinantly] | – | higher stability
